From publication PMC3868940 (Nature methods, 2013) come the findings set out here.

Common to all, as to assay: native MS
Data set [1] deals with sensory rhodopsin II (pSRII) from Natronomonas pharaonis, pSRII(1-241) (Natronomonas pharaonis) (UniProt P42196).
Data set [2] concerns the molecule itself.
Data set [3] deals with the molecule itself. This is another data set of the same source.

Read-outs that look alike come from different tables or passages of the source.

“sensory rhodopsin II (pSRII) from Natronomonas pharaonis, pSRII(1-241) (from UniProt P42196 1-239) (receptor)” came in with a stoichiometry N in data set [1] of 2.

B1: Diacylglycerol Kinase (DgkA) from E. coli (enzyme, E. coli K12, UniProt P0ABN1 2-122, looked up)
chain: ANNTTGFTRIIKAAGYSWKGLRAAWINEAAFRQEGVAVLLAVVIACWLDVDAITRVLLISSVMLVMIVEILNSAIEAVVDRIGSEYHELSGRAKDMGSAAVLIAIIVAVITWCILLWSHFG
With B1, the “stoichiometry N” value came to 3 in the data set “native MS [2]” and 2 in the data set “native MS [3]”.

For orientation: stoichiometry N means a count of units in the complex or per binding partner.
